Data on 94 variants can be found in the supplement of paper PMC10567573.

B1: ANKRD40 (parent)
chain: VCCCELGVNPDQVEKIRKLPNTLL
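Note: lentivirally expressed fusions sorted by FACS into six bins by GFP to DsRed ratio, PSI derived from sequencing read proportions per bin multiplied by bin number.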

The data set covers variants of B1. The data set is described as follows: protein stability index of a GFP-peptide fusion (GPS, HEK-293T) (PSI 1-6); higher = more stable. The note with it: c terminus: a fixed tail appended.
For VCCCELGVNPDQVEKIRKLPNTDL, the protein stability index stood at 2.31.

On to VCCCELGVNPDQVEKIRKLPNTWL, for which the protein stability index amounted to 2.9.

Consider VCCCELGVNPDQVEKIRKLPNTQL, for which the protein stability index came to 2.35.

For VCCCELGVNNDQVEKIRKLPNTLL, the protein stability index amounted to 2.

As for VCCCELGVNGDQVEKIRKLPNTLL, the protein stability index was determined as 2.17.

Regarding VCCCELGVNSDQVEKIRKLPNTLL, the protein stability index was found to be 1.89.

As for VCCCELGVNQDQVEKIRKLPNTLL, the protein stability index came to 2.02.

Turning to VCCCELGVNKDQVEKIRKLPNTLL, the protein stability index was 2.02.

In the case of VCCCELGVIPDQVEKIRKLPNTLL, the protein stability index is 1.88.

In the case of VCCCELGVNPDQVEKIRSLPNTLL, the protein stability index came out at 2.08.

On to VCCCELGVNPDQVEKIRTLPNTLL, for which the protein stability index was 1.89.

In the case of VCCCELGVNPDQVEKIRFLPNTLL, the protein stability index was determined as 2.53.

Regarding VCCCELGVNPDQVEKIRALPNTLL, the protein stability index was found to be 1.26.

On to VCCCELGVNPDQVEKIRELPNTLL, for which the protein stability index came out at 2.03.

As to VCCCELGVNPDQVEKIRNLPNTLL, the protein stability index turned out to be 1.64.

For the variant VCCCELRVNPDQVEKIRKLPNTLL, the protein stability index amounted to 1.78.

With VCCCELKVNPDQVEKIRKLPNTLL, the protein stability index turned out to be 2.42.

For VCCCELTVNPDQVEKIRKLPNTLL, the protein stability index is 2.85.

With VCCCRLGVNPDQVEKIRKLPNTLL, the protein stability index is 1.47.

As to VCCCQLGVNPDQVEKIRKLPNTLL, the protein stability index came to 1.71.

Consider VCCCEMGVNPDQVEKIRKLPNTLL, for which the protein stability index was 2.3.

Turning to VCCCEVGVNPDQVEKIRKLPNTLL, the protein stability index was determined as 2.2.

On to VCCCEYGVNPDQVEKIRKLPNTLL, for which the protein stability index is 1.87.

With VCCCENGVNPDQVEKIRKLPNTLL, the protein stability index was 2.47.

For the variant VCCCEKGVNPDQVEKIRKLPNTLL, the protein stability index worked out at 3.1.

For the variant VCCCEFGVNPDQVEKIRKLPNTLL, the protein stability index was found to be 1.4.

Turning to VCCCETGVNPDQVEKIRKLPNTLL, the protein stability index turned out to be 2.13.

As to VCCCEEGVNPDQVEKIRKLPNTLL, the protein stability index came out at 2.76.

Consider VCCCELGGNPDQVEKIRKLPNTLL, for which the protein stability index is 2.33.

Turning to VCCCELGINPDQVEKIRKLPNTLL, the protein stability index came to 1.79.

On to VCCCELGPNPDQVEKIRKLPNTLL, for which the protein stability index stood at 1.79.

Take VCCCELGLNPDQVEKIRKLPNTLL: the protein stability index was found to be 1.34.

As to VCCCELGFNPDQVEKIRKLPNTLL, the protein stability index is 1.3.

Take VCCCELGWNPDQVEKIRKLPNTLL: the protein stability index stood at 1.58.

As to VCCCELGCNPDQVEKIRKLPNTLL, the protein stability index amounted to 1.86.

Regarding VCCCELGSNPDQVEKIRKLPNTLL, the protein stability index is 2.4.

For the variant VCCCELGVNPDTVEKIRKLPNTLL, the protein stability index worked out at 1.76.

Take VCCCELGVNPDIVEKIRKLPNTLL: the protein stability index amounted to 2.38.

For the variant VCCCELGVNPDCVEKIRKLPNTLL, the protein stability index is 2.06.

As for VCCCELGVNPDVVEKIRKLPNTLL, the protein stability index was 2.24.

Consider VCCCELGVNPDNVEKIRKLPNTLL, for which the protein stability index came to 1.75.

As to VCCCELGVNPDRVEKIRKLPNTLL, the protein stability index amounted to 1.67.

With VCCCELGVNPDQVEEIRKLPNTLL, the protein stability index turned out to be 2.81.

On to VCCCELGVNPDQVERIRKLPNTLL, for which the protein stability index stood at 2.21.

For the variant VCCCELGVNPDQVEMIRKLPNTLL, the protein stability index is 1.76.

On to VCCCELGVNPDQVESIRKLPNTLL, for which the protein stability index stood at 2.34.

For the variant VCCCELGVNPDQVEGIRKLPNTLL, the protein stability index came to 1.41.

As to VCCCELGVNPDQVEQIRKLPNTLL, the protein stability index came out at 2.23.

Turning to VCCCELGVNPDQNEKIRKLPNTLL, the protein stability index stood at 2.38.

In the case of VCCCELGVNPDQIEKIRKLPNTLL, the protein stability index stood at 1.75.

Consider VCCCELGVNPDQVEKIFKLPNTLL, for which the protein stability index was found to be 1.92.

For the variant VCCCELGVNPDQVEKIKKLPNTLL, the protein stability index stood at 2.29.

On to VCCCELGVNPDQVEKICKLPNTLL, for which the protein stability index was determined as 1.46.

In the case of VCCCELGVNPDQVEKIQKLPNTLL, the protein stability index amounted to 1.62.

As for VCCCELGVNPDQVEKIDKLPNTLL, the protein stability index amounted to 2.21.

Turning to VCCCELGVNPDQVEKINKLPNTLL, the protein stability index was determined as 1.67.

As for VCCCELGVNPDQVEKIRKLPNTLF, the protein stability index is 2.04.

Turning to VCCCELGVNPDQVEKIRKLPNTLC, the protein stability index amounted to 2.12.

On to VCCCELGVNPDQVEKIRKLPNTLI, for which the protein stability index was determined as 1.95.

For the variant VCCCELGVNPDQVEKIRKLPNTLD, the protein stability index was 3.15.

With VCCCELGVNPDQVEKIRKLPNTLQ, the protein stability index is 2.48.

For VACCELGVNPDQVEKIRKLPNTLL, the protein stability index came out at 2.85.

As for VYCCELGVNPDQVEKIRKLPNTLL, the protein stability index was 2.6.

With VICCELGVNPDQVEKIRKLPNTLL, the protein stability index amounted to 1.62.

As to VSCCELGVNPDQVEKIRKLPNTLL, the protein stability index was 2.76.

In the case of VFCCELGVNPDQVEKIRKLPNTLL, the protein stability index turned out to be 1.9.

With VCCCELGVNPDQVEKIRKGPNTLL, the protein stability index was 3.13.

In the case of VCCCELGVNPDQVEKIRKYPNTLL, the protein stability index was found to be 1.76.

With VCCCELGVNPDQVEKIRKPPNTLL, the protein stability index amounted to 1.91.

Take VCCCELGVNPDQVEKIRKSPNTLL: the protein stability index turned out to be 2.17.

VCCCELGVNPDQVEKIRKFPNTLL: the protein stability index stood at 1.57.

In the case of VCCCELGVNPDQVEKIRKIPNTLL, the protein stability index was 2.25.

VCCCELGVNPDQVEKIRKNPNTLL: the protein stability index turned out to be 2.23.

For the variant VCCCELGVNPDQVEKERKLPNTLL, the protein stability index came to 3.09.

For the variant VCCCELGVNPDQVEKCRKLPNTLL, the protein stability index was 2.22.

With VCCCELGVNPDQVEKTRKLPNTLL, the protein stability index was 2.56.

Regarding VCCCELGVNPDQVEKRRKLPNTLL, the protein stability index worked out at 2.12.

For VCCCELGVNPDQVMKIRKLPNTLL, the protein stability index stood at 1.53.

As for VCCCELGVNPDQVAKIRKLPNTLL, the protein stability index turned out to be 2.3.

For VCCCELGVNPDQVSKIRKLPNTLL, the protein stability index turned out to be 1.45.

As for VCCCELGVNPDQVCKIRKLPNTLL, the protein stability index amounted to 1.71.

Consider VCCCELGVNPDQVGKIRKLPNTLL, for which the protein stability index amounted to 1.89.

For VCCCELGVNPDQVEKIRKLPHTLL, the protein stability index stood at 1.83.

Consider VCCCELGVNPDQVEKIRKLPTTLL, for which the protein stability index was found to be 2.04.

On to VCCCELGVNPDQVEKIRKLPRTLL, for which the protein stability index came to 1.34.

In the case of VCCCELGVNPDQVEKIRKLPFTLL, the protein stability index worked out at 1.95.

Take VCCWELGVNPDQVEKIRKLPNTLL: the protein stability index came out at 1.98.

For the variant VCCYELGVNPDQVEKIRKLPNTLL, the protein stability index was found to be 1.85.

For VCCVELGVNPDQVEKIRKLPNTLL, the protein stability index came out at 2.74.

Take VCCEELGVNPDQVEKIRKLPNTLL: the protein stability index was 3.

For the variant FCCCELGVNPDQVEKIRKLPNTLL, the protein stability index was 1.5.

On to PCCCELGVNPDQVEKIRKLPNTLL, for which the protein stability index came to 1.41.

RCCCELGVNPDQVEKIRKLPNTLL: the protein stability index turned out to be 1.99.

For the variant KCCCELGVNPDQVEKIRKLPNTLL, the protein stability index was found to be 2.35.
